# B1: Juxtaposed with another zinc finger protein 1 (Homo sapiens), Q86VZ6 (parent)
# chain: MTGIAAASFFSNTCRFGGCGLHFPTLADLIEHIEDNHIDTDPRVLEKQELQQPTYVALSYINRFMTDAARREQESLKKKIQPKLSLTLSSSVSRGNVSTPPRHSSGSLTPPVTPPITPSSSFRSSTPTGSEYDEEEVDYEESDSDESWTTESAISSEAILSSMCMNGGEEKPFACPVPGCKKRYKNVNGIKYHAKNGHRTQIRVRKPFKCRCGKSYKTAQGLRHHTINFHPPVSAEIIRKMQQ
# partner: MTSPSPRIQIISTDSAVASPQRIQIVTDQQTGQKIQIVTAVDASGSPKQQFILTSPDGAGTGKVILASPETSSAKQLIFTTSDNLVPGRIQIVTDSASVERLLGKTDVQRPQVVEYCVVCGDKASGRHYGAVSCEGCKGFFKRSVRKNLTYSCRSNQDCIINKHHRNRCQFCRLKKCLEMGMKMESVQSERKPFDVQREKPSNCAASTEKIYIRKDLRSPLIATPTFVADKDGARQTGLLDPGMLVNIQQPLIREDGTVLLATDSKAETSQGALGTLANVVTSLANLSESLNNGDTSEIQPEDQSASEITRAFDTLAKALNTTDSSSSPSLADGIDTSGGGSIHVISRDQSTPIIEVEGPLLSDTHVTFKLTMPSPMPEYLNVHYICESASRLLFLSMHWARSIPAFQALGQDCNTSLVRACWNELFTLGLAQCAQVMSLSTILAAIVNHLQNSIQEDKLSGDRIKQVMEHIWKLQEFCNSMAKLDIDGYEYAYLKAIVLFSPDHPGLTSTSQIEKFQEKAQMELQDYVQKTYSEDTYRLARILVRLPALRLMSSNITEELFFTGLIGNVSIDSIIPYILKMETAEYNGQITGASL
# B2: Nuclear receptor subfamily 2 group C member 2 (Homo sapiens), P49116 (parent)
# chain: B1 partner
# partner: B1 chain
# Variants of: B1
# Settings: with nr2c2_human NR2C2, P49116
row,effect of a mutation on the interaction,Variant
1,with no effect,K47P
2,disrupting interaction strength,Y60D
3,with no effect,A69P
4,decreasing interaction strength,L76P

# Variants of: B2
# Settings: with jazf1_human JAZF1, Q86VZ6
row,effect of a mutation on the interaction,Variant
1,decreasing interaction strength,I576N

# Reference: IntAct's records for PubMed 15302918
